# Measured values published in publication doi:10.1101/2021.07.08.451529 (bioRxiv, 2021).
# B1: recombinant C. elegans cytoplasmic malate dehydrogenase MDH-1 (F46E10.10) (enzyme)
# chain: MSAPLRVLVTGAAGQIGYSIVIRIADGTVFGKEQPVELVLLDVPQCSNILEGVVFELQDCALPTLFSVVAVTDEKSAFTGIDYAFLVGAMPRREGMERKDLLAANVKIFKSQGKALAEYAKPTTKVIVVGNPANTNAFIAAKYAAGKIPAKNFSAMTRLDHNRALAQLALKTGTTIGNVKNVIIWGNHSGTQFPDVTHATVNKNGTETDAYAAVGDNAFLQGPFIATVQKRGGVIIEKRKLSSAMSAAKAACDHIHDWHFGTKAGQFVSMAVPSDGSYGIPQGLIFSFPVTIEGGEWKIVQGLSFDDFAKGKIAATTKELEEERDDALKACDDANIA
# How the values were obtained:
# [1] = target: recombinant C. elegans mitochondrial malate dehydrogenase MDH-2 (F20H11.3), mitochondrial import sequence removed (C. elegans); test: SEC
# SEC = target: the molecule itself; test: SEC
Molecule,stoichiometry N [1],stoichiometry N (SEC)
"recombinant C. elegans mitochondrial malate dehydrogenase MDH-2 (F20H11.3), mitochondrial import sequence removed (enzyme)",2,–
B1,–,2
